{"source": "paper PMC10457294", "key": {"[1]": {"molecular_target": "human B7.1 ectodomain, His-tagged (human) (UniProt P33681)", "sequence (P33681 35-234)": "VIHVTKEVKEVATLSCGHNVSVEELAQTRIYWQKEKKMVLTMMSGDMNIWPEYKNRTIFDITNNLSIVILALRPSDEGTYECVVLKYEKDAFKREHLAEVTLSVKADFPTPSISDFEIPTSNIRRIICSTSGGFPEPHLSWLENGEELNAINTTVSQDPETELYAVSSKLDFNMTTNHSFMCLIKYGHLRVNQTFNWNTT", "test": "cryo-EM structure"}, "[2]": {"molecular_target": "MPXV M2 (monkeypox virus M2 protein), His-tagged, wild type (monkeypox virus (Clade I)) (UniProt Q8V554)", "test": "cryo-EM structure"}, "[3]": {"molecular_target": "human B7.2 ectodomain, His-tagged (human) (UniProt P42081)", "sequence (P42081 26-238)": "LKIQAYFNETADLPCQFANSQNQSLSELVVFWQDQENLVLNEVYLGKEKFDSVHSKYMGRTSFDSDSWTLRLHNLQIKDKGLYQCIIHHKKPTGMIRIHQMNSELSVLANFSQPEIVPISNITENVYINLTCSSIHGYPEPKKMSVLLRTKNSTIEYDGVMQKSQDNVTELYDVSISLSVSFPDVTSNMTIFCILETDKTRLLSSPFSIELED", "test": "cryo-EM structure"}, "[4]": {"molecular_target": "MPXV M2 (monkeypox virus M2 protein), His-tagged, wild type (monkeypox virus (Clade I)) (UniProt Q8V554)", "test": "SEC-MALS"}, "[5]": {"molecular_target": "human B7.1 ectodomain fused to human Fc (human) (UniProt P33681)", "sequence (P33681 35-234)": "as the sequence (P33681 35-234) above", "test": "BLI; […] (10 ug/mL) […]; 10 mM HEPES pH 7.4, 150 mM NaCl, 3 mM EDTA, 0.05% Tween, 1% BSA; 25 °C; 1:1 model; […]"}, "[6]": {"molecular_target": "human B7.2 ectodomain fused to human Fc (human) (UniProt P42081)", "sequence (P42081 26-238)": "as the sequence (P42081 26-238) above", "test": "BLI; […] (10 ug/mL) […]; 10 mM HEPES pH 7.4, 150 mM NaCl, 3 mM EDTA, 0.05% Tween, 1% BSA; 25 °C; 1:1 model; […]"}}, "note": "Where “and” joins values, the source holds several entries; their conditions need not be identical. Equal entries are not always repeated.", "data": [{"substance": "MPXV M2 (monkeypox virus M2 protein), His-tagged, wild type (from UniProt Q8V554 18-220) (natural protein)", "values": [{"measurement": "stoichiometry N", "setting": "[1]", "result": 1}, {"measurement": "stoichiometry N", "setting": "[2]", "result": "6 and 7"}, {"measurement": "stoichiometry N", "setting": "[3]", "result": 1}, {"measurement": "stoichiometry N", "setting": "[4]", "result": 6.12}, {"measurement": "t1/2 (dissociation half-life time)", "setting": "[5]", "result": 6.62, "unit": "h"}, {"measurement": "t1/2 (dissociation half-life time)", "setting": "[6]", "result": 19.7, "unit": "h"}]}]}
